Laboratory results as given in paper PMC9016349, “HOIL‐1 ubiquitin ligase activity targets unbranched glucosaccharides and is required to prevent polyglucosan accumulation” (The EMBO Journal, 2022).

Molecular target: T1, His‐Halo‐tagged Met1‐linked ubiquitin tetramer (human, UniProt P0CG48 1-76; P0CG48 1-76; P0CG48 1-76; P0CG48 1-76)
T1 construct: ubiquitin (76-residue mature product of the polyubiquitin precursor), repeat 1 of 4, joined head to tail through Met1; ubiquitin (76-residue mature product), repeat 2 of 4; ubiquitin (76-residue mature product), repeat 3 of 4; ubiquitin (76-residue mature product), repeat 4 of 4; Tag end read from the printed name Halo‐M1‐Ub4; Covalently coupled to HaloLink resin through the Halo tag; also called …
Experiment: pull-down; Halo‐tagged M1‐linked tetraubiquitin covalently coupled to HaloLink resin; 10 μl beads with 2 μg bacterially expressed HOIL‐1 protein in 0.5 ml PBS pH 7.4, 0.001% NP‐40, 1 mM TCEP, 0.01 mg/ml BSA, 3.5 h at 4°C; bound protein detected by Coomassie staining
Conditions: both partners purified

T1 sequence (P0CG48 1-304, one chain of several): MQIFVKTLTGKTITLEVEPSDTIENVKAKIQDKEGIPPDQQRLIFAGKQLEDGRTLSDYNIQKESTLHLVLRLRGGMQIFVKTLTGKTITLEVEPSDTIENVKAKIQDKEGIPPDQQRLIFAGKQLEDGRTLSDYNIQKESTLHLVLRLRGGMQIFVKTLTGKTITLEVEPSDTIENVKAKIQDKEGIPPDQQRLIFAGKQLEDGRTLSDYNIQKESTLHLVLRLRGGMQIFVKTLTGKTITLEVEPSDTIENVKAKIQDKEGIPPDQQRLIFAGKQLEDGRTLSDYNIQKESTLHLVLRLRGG

binding result: binds
B1: HOIL‐1 (haem‐oxidised IRP2 ubiquitin ligase‐1), full‐length untagged human, wild type (enzyme, UniProt Q9BYM8 1-510, looked up)
chain: MDEKTKKAEEMALSLTRAVAGGDEQVAMKCAIWLAEQRVPLSVQLKPEVSPTQDIRLWVSVEDAQMHTVTIWLTVRPDMTVASLKDMVFLDYGFPPVLQQWVIGQRLARDQETLHSHGVRQNGDSAYLYLLSARNTSLNPQELQRERQLRMLEDLGFKDLTLQPRGPLEPGPPKPGVPQEPGRGQPDAVPEPPPVGWQCPGCTFINKPTRPGCEMCCRARPEAYQVPASYQPDEEERARLAGEEEALRQYQQRKQQQQEGNYLQHVQLDQRSLVLNTEPAECPVCYSVLAPGEAVVLRECLHTFCRECLQGTIRNSQEAEVSCPFIDNTYSCSGKLLEREIKALLTPEDYQRFLDLGISIAENRSAFSYHCKTPDCKGWCFFEDDVNEFTCPVCFHVNCLLCKAIHEQMNCKEYQEDLALRAQNDVAARQTTEMLKVMLQQGEAMRCPQCQIVVQKKDGCDWIRCTVCHTEICWVTKGPRWGPGGPGDTSGGCRCRVNGIPCHPSCQNCH
notes: HOIL‐1 (RBCK1), human, full length (residues 1-510 by the printed construct limits); Tag end read from the printed name His6‐SUMO‐HOIL‐1; also called RBCK1; wild‐type HOIL‐1; source: E. coli BL21 (DE3), purified (tag removed with Ulp1; size exclusion chromatography or dialysis); not shown: His6, N-terminal, cleaved; SUMO, N-terminal, cleaved
